Experimental data from article PMC6874815, “Tunnel engineering to accelerate product release for better biomass-degrading abilities in lignocellulolytic enzymes” (Biotechnology for Biofuels, 2019).
Substitutions are numbered along the chain they refer to. Names and notes keep the numbering of the source.

Substrate: O=[N+]([O-])c1ccc(O[C@@H]2OC[C@@H](O[C@@H]3OC[C@@H](O)[C@H](O)[C@H]3O)[C@H](O)[C@H]2O)cc1
Experiment: Eadie-Hofstee plot of hydrolysis
Format: biochemical, Halalkalibacterium halodurans
Details: pH and temperature of kinetic assay not stated (activity assay: glycine-NaOH pH 9.0, 70 °C)
Excerpt: Eadie-Hofstee plot of hydrolysis on S7-xyl (Xyn10A in Table 1)

[1] = mutant 254RL1, text b16 says Km slightly increased by 10%, table shows a decrease

B1: S7-xyl (Xyn10A in Table 1) (Halalkalibacterium halodurans C-125) (protein)
chain: AQGGPPKSGVFGENEKRNDQPFAWQVASLSERYQEQFDIGAAVEPYQLEGRQAQILKHHYNSLVAENAMKPESLQPREGEWNWEGADKIVEFARKHNMELRFHTLVWHSQVPEWFFIDEDGNRMVDETDPDKREANKQLLLERMENHIKTVVERYKDDVTSWDVVNEVIDDGGGLRESEWYQITGTDYIKVAFETARKYGGEEAKLYINDYNTEVPSKRDDLYNLVKDLLEQGVPIDGVGHQSHIQIGWPSIEDTRASFEKFTSLGLDNQVTELDMSLYGWPPTGAYTSYDDIPAELLQAQADRYDQLFELYEELAADISSVTFWGIADNHTWLDGRAREYNNGVGIDAPFVFDHNYRVKPAYWRIID
notes: N-terminal His-tag, pET-28a, E. coli Rosetta (DE3), codon-optimized synthetic gene; GH10
Km (listed as labelled Xyn10A): 4.42 ± 0.12 mM
kcat (listed as labelled Xyn10A): 4.57 ± 0.31 s⁻¹
kcat/Km (listed as labelled Xyn10A): 1030 M⁻¹ s⁻¹

B2: S7-xyl (Xyn10A in Table 1) (Halalkalibacterium halodurans C-125; Q274S/V243N/W277R) (protein)
chain: B1 chain with V215N, Q246S, W249R
notes: as for B1
Km [1]: 4.04 ± 0.27 mM
kcat [1]: 14.4 ± 0.21 s⁻¹
kcat/Km [1]: 3540 M⁻¹ s⁻¹
